From article PMC4397538 (2015)

Molecular target: T1, Biotin-BH4-Bcl-XL (Homo sapiens (Human), UniProt Q07817, biotin on the N-terminus (also used without the biotin tag))
T1 chain: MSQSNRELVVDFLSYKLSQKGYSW
Test: SPR

- binding result: no binding
B1: GST-tagged IP3R1 domain 3 (mouse IP3R1, a.a. 923-1581) (protein)
chain: SIHGVGELMTQVVLRGGGFLPMTPMAAAPEGNVKQAEPEKEDIMVMDTKLKIIEILQFILNVRLDYRISCLLCIFKREFDESNSQSSETSSGNSSQEGPSNVPGALDFEHIEEQAEGIFGGSEENTPLDLDDHGGRTFLRVLLHLTMHDYPPLVSGALQLLFRHFSQRQEVLQAFKQVQLLVTSQDVDNYKQIKQDLDQLRSIVEKSELWVYKGQGPDEPMDGASGENEHKKTEEGTSKPLKHESTSSYNYRVVKEILIRLSKLCVQESASVRKSRKQQQRLLRNMGAHAVVLELLQIPYEKAEDTKMQEIMRLAHEFLQNFCAGNQQNQALLHKHINLFLNPGILEAVTMQHIFMNNFQLCSEINERVVQHFVHCIETHGRNVQYIKFLQTIVKAEGKFIKKCQDMVMAELVNSGEDVLVFYNDRASFQTLIQMMRSERDRMDENSPLMYHIHLVELLAVCTEGKNVYTEIKCNSLLPLDDIVRVVTHEDCIPEVKIAYINFLNHCYVDTEVEMKEIYTSNHMWKLFENFLVDICRACNNTSDRKHADSILEKYVTEIVMSIVTTFFSSPFSDQSTTLQTRQPVFVQLLQGVFRVYHCNWLMPSQKASVESCIRVLSDVAKSRAIAIPVDLDSQVNNLFLKSHNIVQKTALNWRLSAR
